Experimental data from the DeepSol protein solubility set.

Assay: soluble on expression in E. coli; label from the status in PepcDB or PDB records

Row | Sequence | soluble on expression in E. coli
1 | MSLHSYDYDAIVIGSGPGGEGAAMGLVKQGARVAVIERYQNVGGGCTHWGTIPSKALRHAVSRIIEFNQNPLYSDHSRLLRSSFADILNHADNVINQQTRMRQGFYERNHCEILQGNARFVDEHTLALDCPDGSVETLTAEKFVIACGSRPYHPTDVDFTHPRIYDSDSILSMHHEPRHVLIYGAGVIGCEYASIFRGMDVKVDLINTRDRLLAFLDQEMSDSLSYHFWNSGVVIRHNEEYEKIEGCDDGVIMHLKSGKKLKADCLLYANGRTGNTDSLALQNIGLETDSRGQLKVNSMYQTAQPHVYAVGDVIGYPSLASAAYDQGRIAAQALVKGEANAHLIEDIPTGIYTIPEISSVGKTEQQLTAMKVPYEVGRAQFKHLARAQIVGMNVGTLKILFHRETKEILGIHCFGERAAEIIHIGQAIMEQKGGGNTIEYFVNTTFNYPTMAEAYRVAALNGLNRLFEGHHHHHH | soluble
2 | MSLARRVGIYTRISRDDEGDALGVARQHRDCERLADLRSWQAVKVYEDNDVSAYKRHVVREQFELMLSDLGAGLIDGIVAYDLDRLARQPRDLERLIEIFDERPRLEFATVTNDVNLGTPDGRTMSRIMVAFANKSSHDASRRIKRKHLELAQQGKDSGGPAPYGWLKEDRSKVDPKAAAAIREAQREILAGVRIGTIRTRWQEQGLGNPRAGTKRMAHHHVEHILTSPRLVGYRTYHGEVLNDEDGRPVMGEWEAINTLEEWEAVCAAVAERKQKQPGRSLARKYMLSGIARCGLCKTKIRGQINQRWQPGSKATKFTYQCSVVNGGCGKVGRVGEPVDRLIAELALEEQRARAAATTVPIDQRWSRNAELEQVNDDITQLVNAERSKQITVTTLLQLLPGKERQRDELKLERARFYKELKQSEAKGDAANLTLDEFFGLPIERQQEIVLHRLSAVIIHPAGKGRRRFDPSLIEPVWREGHHHHHH | soluble
3 | MPLTFAHSFADAVPSLSVPWRAEQWPDPRIIVFNHELGQELGIDEASLLSNITQQGHAQAYSGHQFGQFNPLLGDGRALVLGDCAQTNAPHGQFEISLKGSGPTPFARRGDGRATLGPMLREYLISEALHGLGIPTTRSLAVITTGTDVQRERLLPGAVVVRVAQNHLRVGSVQCAAMRDDDSLAALVRYALSSHEDGVSDAEAAGLLLRRVSTSQAKLVAQWMRFGFVHGVMNTDNVTLSGQTIDFGPCAFIDSFHPQAVFSSIDSHGRYSFGRQPSIMGWNIARLAEALLPLMSIDEARNIVHEFPDMYRRSWLDEMADAVGISPDDDHAAGVLDDLVALLDVHRPDYAQFMRSLSDGTTVSLFPWAQQWEAEVSSLRVAAPRNPVYVPRNYLVEDALEHAMNADMSVFSLLVEAGKNPYLREKRFEKLENPAPETWQDYVTYCGTLEHHHHHH | soluble
4 | MGHHHHHHSHMYADEVDKDRRTFKKNFSSARGSGIDGKWKRDMFQTANRSPKQNFTTKRRAQTNFVTKAGAAAAGLATRNISTASIRGRTAPAVVREIHTGPSTLIIKNLATTVTQEDLEELFEQYEPELVQLHYGPTGESNGCADLIVPHAQVAIIQKALEGVLLDGEPIEVLEANPPKQVSVFDRIKKVSRGNDFKAKNMRVVVKSKGGFQKRGARGDF | soluble
5 | MGSDKIHHHHHHGAGVSTGSKLPDFRGKQGVWTLQAEGKHAEGVDFQVARPGVSHKSILALHKAGYIKTIITQNVDGLDRKVGIPVEDLIEVHGNLFLEVCQSCFSEYVREEIVMSVGLCPTGRNCEGNKRTGRSCRGKLRDATLDWDTEISLNHLDRIRKAWKQTSHLLCIGTSLEIIPMGSLPLDAKSKGIKTTTINYQETAHEKIVETAIHADVKLILYSLCNALGVNVDLGDDLPDEVPIPLKIS | not soluble
6 | MGSDKIHHHHHHMSILTVENVSHSYGEKTILYNACFRLLKGEHVGLVGQNGIGKSTLLKILTGELIHDEGNIEWFPHVKVGFLQQHIDLQEGITIEGYLQSAFADLYVIECEMLKIAEEMNGAGEVEKLLVKYGELQTILESSNFYHIHTEVEEVAIGLGLFEIGLKKDVSKLSGGQRTKLLLGKLLLEKADVLLLDEPTNYLDTAHIEWLQSYLRLYEKAYVIISHDELFLNSITNVIFHLEGGKVKRYVGNYEKFVQSYQVQKKQLQSAYVKQQKEISQLETFIQKNKIRKAKQAKSREKVLEKMQRIEKIHPVPRSRFDFNVYEEPVSRILQAEKLRIGYSDPLCPELNLQVKKGEKIAIIGHNGIGKTTMLKTLLGQIKPLSGSISVGERVNPAYFAQEEFASETTPLEKVWAERPDMTKKEVRQALAKCGLKEEHVLKPIRLLSGGEQTKVRLCELIVKKSNVLILDEPTNHLDIETKKALQEALQRYRGTVLLVSHEPSFYEAWITKVWNIEEWNAEQYE | not soluble
7 | GELDPVVTWGTTPGQGIGIDDPIPEPEDLADDKVDTARRAQKHMRVEPGETMEGYDIDVAFLGSCTNARLPDLRRAARIVKGREVADDVRAFVVPGSQRVQRAAEEEGLKDIFEEAGFEWRNAGCSMCLGMNEDQLEGDEACASSSNRNFVGRQGSKDGRTVLMNPRMVAAAAITGEVSDVRDLKEVTLA | not soluble
8 | MSYTAHEAQAALAPQFDAYSKAIEGSDWDTVATFYHPNGVIVQKGKEAFYGKDAIKAELLKFSEATGRSTSSFSNQKYEGAGDYLIITADFSSETEKAGTVKGKFVQIWKKEGDRHLIYHDEFEVNP | not soluble
9 | MSQSGEQRRYTLGEFFSLAGDERMELYEGTIVLMYPVPYEHEGVVANLIAEFRMALKGSPCLVFGSNLQVVLLFEDEQKGTKNVTVLPDLSIICDRTKLRQGRCYGAPDLVVEVLSPSTARNDRLLKRLYYEKAGVREYWLVDYQHKVMEKYVWQSGAFQLEDVYDAANGAAASTVFPEVRFSVKEIFAFLTS | not soluble
10 | MSLGDEWARIRKDGALLIGLEGTFPPYSQLAGGQLQGFEVDFGRALAAQMGVTARFQTMVWDHMLDSLAAGRLDAVINQVVATPARGKRFDFSIPYTYSGLQLVVRKPDLTRFRGARDLAGAHVGVSAGTNYEQWLRDNAPQAHIHLYQDDPTKFDGLRRGEVDAIVINRLAAFNLALKSQGELVPTGRVLAREDACVVLRKGNPRLLAEVNRAIGHLQRDGTLQALSRKWFKADIVSEGHHHHHH | soluble
11 | GMKTQITTRDLVLEFIHALNTENFPAAKKRLNENFTFNGPMGHREGSERYMNDMEKMKFKYVVHKMFEEGNDVCLIYDINMNGKTIAASGLYHLEKGEITSLHVYFDPRPLFEE | soluble
12 | MTGILDSVNQRTQLVGQNRLELLTFRLMGRQRYGINVFKVKEVLQCPKLTSMPNLHPLVKGIAHIRGHTVSVIDLSLAIGGRPTTDIDKCFVVIAEFNRTIQAFLVSSVERIINMHWEAILPPPDGAGKAHYLTAVTNIDNELVEILDVEKILAEIAPVDETMDSTIGEEIAQAEQEKPIVR | not soluble
13 | MGNRLSKIYTRTGDRGETGLAGGRRVPKSHPRIEAIGAVDELNSQLGLLLAELLEARGAHPGLEEIVQALAPVQHRLFDLGGELAMPEYRALDETEVARLESCIDRWNDELGPLKNFILPGGSRPVAQAHVCRSLARSAERRCQALDQEETLEGVGLRYLNRLSDLLFVAARAIARRQGVAEILWEAAAKPD | not soluble
14 | MGHHHHHHHHHHSSGHIEGRHMYTVMLDLKGRSVLVVGGGTIATRRIKGFLQEGAAITVVAPTVSAEINEWEAKGQLRVKRKKVGEEDLLNVFFIVVATNDQAVNKFVKQHIKNDQLVNMASSFSDGNIQIPAQFSRGRLSLAISTDGASPLLTKRIKEDLSSNYDESYTQYTQFLYECRVLIHRLNVSKSRKHELLTEIIDDQYRLSLVKQREFLQQIEKYK | soluble
15 | SGFEFHGYARSGVIMNDSGASTKSGAYITPAGETGGAIGRLGNQADTYVEMNLEHKQTLDNGATTRFKVMVADGQTSYNDWTASTSDLNVRQAFVELGNLPTFAGPFKGSTLWAGKRFDRDNFDIHWIDSDVVFLAGTGGGIYDVKWNDGLRSNFSLYGRNFGDIDDSSNSVQNYILTMNHFAGPLQMMVSGLRAKDNDERKDSNGNLAKGDAANTGVHALLGLHNDSFYGLRDGSSKTALLYGHGLGAEVKGIGSDGALRPGADTWRIASYGTTPLSENWSVAPAMLAQRSKDRYADGDSYQWATFNLRLIQAINQNFALAYEGSYQYMDLKPEGYNDRQAVNGSFYKLTFAPTFKVGSIGDFFSRPEIRFYTSWMDWSKKLNNYASDDALGSDGFNSGGEWSFGVQMETWF | soluble
16 | MASKRIIRMSDLLHTTPVFNRGYRFQWEQAQQSYVILYPEGLVRLNESATLILKQIDGKLTVHDIIQNLSAQFPDATGLDQDIVEFLKQAESRQWICLQ | not soluble
17 | MSLTGETLFGTIELVGYRDNYGQIKIPRRPLNPGEKVYGVDYEFLSKFYKFDENTSINIGNLIGYDKGSNIVPVYLDVNKLVTEHLAVLAMTGSGKSYTVGRIIERLVAEMNGTVVVFDVHGEYGKAFEKGEIHFNNNLDFIEDEREKKSIQRIQENLIKMQNAGGGIKVYTPQIDSFDYKYSGKNHHLALQFDRFDMDDLSSILPGLTEAQERVLDVAIRYWKAKYNHPPRDIQDLTYLLSDEQGLEELKNWDNLTEGEAKALNNRSAAVASMKLTRVINEAKSFYTRAIGEPTDIYDMIGEKGNSVGRLVIIDLQGLSDDAKQIITALISSEIMRAASDKKRQIRPCFLVYEEGHNFAPAGIPSISKKIIKKIAAEGRKFGVGFAIISQRPSKLDPDVTSQCNTIITMRLKNPDDQRFIAKTSDMFSSSDIEELPSLSTGEALINGRSIPAPLLVKVGTKALIHGGESPEVIKEWGVFNGEGHHHHHH | not soluble
18 | MGSDKIHHHHHHMMGGFTVLIEMHCHTSEYSSCSGVAAVNLVRQVAAKNLQGIVLTDHHHLWEASELADVRRRAEVPDHFVILAGQEVTTPELGDVLVFGADATIERGTPLAEIRRRYPAAALVWAHPYRRGKRPTPEQLCHPLLDGVEIFNSNHTVRENSQGLQDWHRDRFTAIAGTDTHGENYAGLYPTQFDHAVKTIADLAAEIRHGRCRPFLKEIPRSGANSQVIEVTIGTKGADEVRERLIIKEIGTRHKWRSAERAFRIMGEIVGHGFDEGKFRVPRPIDEDEASMTLIEQGLRGKSLFDKLLTAEPEDGRAYLSLAAGWLARLHGCRLRITPRDEFLVREDERLARYLERFTAIGHRHTRKVQEILAAVAAEERRVVAEGSAYMVQGHGDFHPKNVFVGQDVMENRSTLFVAAIDFESSYVLPRAFDVGCFLAQFRNQFYHYGEIVNAYPEELFLEAYLRDSDQVEPDFLRQVELFRARTNMSIAAYLVKVGLGDSEDLWRVIVEAERSISNLSTGPAG | not soluble
19 | MAHHHHHHMKNSQMERKKYSVHNLVKLINERNKQNVRNKQPAVGADGTTSINAAGDGLDGETHSNFFHVEKNGQVGRKDKAGFPAEDGEIGGEYDVRDGSVDEEDECDGEAVRDGEAAPDEERADCTDGADTTLPPGGGGEVKLFMFDYNECQNQKCSCKKLYRFKKIKKAPINKKFKGIVLTPFCEKFFSINDKATVENFGLSVIDCSWKSLDLLKKAKFANQRKLPYIIAVNSINYGKPYKLSCLESLAFCLYVCGYNKQCTDILNIYKWSSSFVNLNGELLDMYKLCNTHEEVKSVEDEFIHNSLSEKEKRKEIDQYRVIYEDGYL | soluble
20 | ELRAKERKIIRDKEDGLNPQLADRMTLNELYDRFIEQKYDLKPSTKVNYLYMYNHFVRPTFGKRLIGKIKYSDVKKFYYRIILDEEMKANTLDSIHTQLHPAFQMAVRDGLLRQNPTDGLMAEIKKSHIWEDNPRHALTIPQQKAFMDYLKAHREYQGWVPIITVLLGTGMRIGECIGLRWDDLDFEKRIVSVNHTFIYRPDENRKSVKHISTPKTISGRRTIPMIDEVFNAFLDEYEIQKCIGFSSEEIDGYSNFVFVTATGTVYLPNAVNRAIERARVAYNKDEIEIAEKEDREPLIIPHF | not soluble
